This note sets out measurements from the nanobody polyreactivity screen of Harvey et al. (2022).

A short description of this data set: yeast display, Sf9 membrane polyspecificity reagent, FACS + sequencing; frameworks hold sequencing errors. A digest of the protocol: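 Genes from sorted yeast were amplified by colony PCR, read by MiSeq 2 × 250 sequencing and filtered on CDR length. These cells carried a synthetic nanobody library in Saccharomyces cerevisiae BJ5465 and were sorted by FACS into low and high (top ~1%) gates on anti-HA and streptavidin fluorescence. Polyreactivity is labelled according to the gate of origin.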
For the sequence “QVQLVHSGGGLVQAGGILRLSCAASGYTFGYYTRGWYRQAPGKERELVASIDSGGGTNYADSVKGRFSISRDNAKKTVYLQMNSLKPEDNAVYYCAAESPLYWVEDFESGWRFYYCGQGTQVTVSS”, the “polyreactivity (PSR sort gate)” value is “low polyreactivity”.

On to “QVQLVHSGGGLVQEGGSLRLSCAASGSIFYSYGMGWYRQAPGKERELVAAITSSGGGTYYADSVKGRFTISRDNAKNNVYLQMNSVKAEDTAVYYCAADDRNYNYYPTFYYWGQGTQVTVSS”, for which the “polyreactivity (PSR sort gate)” value was “low polyreactivity”.

Take “QVQLVKSGGGLVQAGGSLRLSCAASGSTFYNDMGGYIHSPGKEIELVAAISIGGSTYYADSVKGRFTISRDNANHTVYLQMSCLKPEDTAVYYCAAVWYTSRQKYDYWGQGTQVTVTS”: the “polyreactivity (PSR sort gate)” value was “low polyreactivity”.

For the sequence “QVQLVKSGGGLVQAGGSLRLTCAASGFTFFVYAMGWYRQAPGKETELVAAITSSGGSTYYADSVKGRFTISRDNAKNTVYLQMNSLKPEDTAVYYCAPDRYSYLGYPYEYEYWGQGTQVTVSS”, the “polyreactivity (PSR sort gate)” value is recorded as “low polyreactivity”.

In the case of “QVQLVQSGGGLVQAGGSLRLSCAASGIIFYVYAMGWYRQAPGKERELVAAISRSGGRTYYADSVKGRFTISRDNPKNTVYLQMNSLKPEDTAVYYCAAVYPRQVSQVWRDDYWGQGTQVTVSS”, the “polyreactivity (PSR sort gate)” value is recorded as “high polyreactivity”.

Take “QVQLVQSGGGLVQAGGSLRLSCAASGLTFYYNVMGWYRQATGKERELVAAITSGGRTYYGDSVKGRFTISRDNAKNTVYLQMNSLKPEDTAVYYCARPYSRAYDYWGQGTEVTVSS”: the “polyreactivity (PSR sort gate)” value was “high polyreactivity”.

For the sequence “QVQLVQSGGGLVQAGGSLRLSCAASGRIFRLSGMGWYRQAPGKERELVAAITRGASTYYADSVKGRFTISRDNAKNTVYLELNSLKPEDTAVYYCAAEGLITGGYWHLYYWGHGTQVTVSS”, the “polyreactivity (PSR sort gate)” value was “high polyreactivity”.

With “QVQLVQSGGGLVQAGGSLRLSCAASGRIFVDNAMAWYRQAPGKERELDAGLTTGGSTYYADSVKGRFTISRDNAKNTVYLQMNSLKPEDTAVYYCNARDHALHRDVLYWYGFDYWAQGTQVTVSS”, the “polyreactivity (PSR sort gate)” value is recorded as “low polyreactivity”.

In the case of “QVQLVQSGGGLVQAGGSLRLSCAASGSIFGDYAMGWYRQAPGKEREFVARINVSGTSTFYADSVKGRFTISRDNAKNTVYLQMNSLKPEDTAVYYCAARGLPSNYYYYVHGYIMDYWGQGTQVTVSS”, the “polyreactivity (PSR sort gate)” value is recorded as “low polyreactivity”.

Take “QVQLVQSGGGLVQAGGSLRLSCAASGSIIGTYAMGCYRQAPGKERELVADINSGGSTYYADSVKGRFTISRDNAKNTVYLQMNSLKPDDTAVYYCAATGGVLYGTWLSYDRWGGGYWGQGTQVTVSS”: the “polyreactivity (PSR sort gate)” value was “low polyreactivity”.

For “QVQLVQSGGGLVQAGGSLRLSCAASGSTFPQNAMGWNRQAPGKERELVAVISRSGGNTYYADSVKGRFTISRDNAKNTVYLQMNSLKPEDTAVYYCATRVNTTYDYWGQGTQVTVSS”, the “polyreactivity (PSR sort gate)” value was “low polyreactivity”.

“QVQLVQSGGGLVQAGGSLRLSCAASGSTFSGYTMGWYRQAPGKEREFVAAISSRGGSTYYADSVKGRFTISRDNAKNTVYLQMNSLKPEDTAVYYCAAKVWARVDGRQFRMEYWGQGTQVTVSS”: the “polyreactivity (PSR sort gate)” value is “high polyreactivity”.

Regarding “QVQLVQSGGGLVQAGGSLRLSCAASGSTFYVYAMGWYRQAPGKEREFVAAISRSGGRTYYAVSVKGRFTISRDNAKNTVYLQMNSLKPEDTAVYYCNARDSLRYYTYYFEDYRVGYDYWGQGTQVTVSS”, the “polyreactivity (PSR sort gate)” value is “high polyreactivity”.

With “QVQLVQSGGGLVQAGGSLRLSCDASGSMFLVYAMGWYRQAPGKERELVAAISRSGRTYADSVKGRFTISRDNAKNTVYLQMNSLKPEDTAVYYCAAGTKRRFEGDYWVQGTQVTVSS”, the “polyreactivity (PSR sort gate)” value is reported as “high polyreactivity”.

With “QVQLVQSGGGLVQAGGSLRVSCAPSGRIYAMGWSRQAPGKERELVARITKSGTSTYYADSVKGRFTISRDNAKNTVYLQMNSMKPEDTAVYYCATATFYRSVLYGYWGQGTQVTVSS”, the “polyreactivity (PSR sort gate)” value was “high polyreactivity”.

In the case of “QVQLVQSGGGLVQAGGSLSLICAASGRIFGYYAMGWYRQAPGKERELVDTITFGGGSTYYADSVKGRFTISRDNAKNTVYLQMNSLKPEDTAVYYCAADCGYLGIYGDEYSWGQGTQVTVSS”, the “polyreactivity (PSR sort gate)” value was “low polyreactivity”.

For the sequence “QVQLVQSGGGLVQAGGSLSLSCAGSGSTFHNYAMGWYRQAPGQEREMVAGISVRGGGTYYAYSVKGRFTISRDNANNTVYVQMNSLKPEETAVYYCAASRSRYSVNWYNYWGQGTQVTVSS”, the “polyreactivity (PSR sort gate)” value is “high polyreactivity”.

For the sequence “QVQLVQSGGRLVQAGGSLRLSCAASGLIFVHYTMGWYRQAPGKERELVASINSGGSTNYADSVKGRFTISRDNAKNTVYLQMISLKPEDTAVYYCADRRVVFWRRMYYWGQGTQVTVSS”, the “polyreactivity (PSR sort gate)” value was “high polyreactivity”.

With “QVQLVQSRGGLVHAGGSLRFSSAATGITILRYAMGWYIQAPGKERELVAGISWDGGRTYNADSVKGRFTISRDNAKNTVFLQMNSMKPEDTEVYYCADKPSRYRVSLFDYWGHGTQVTVSS”, the “polyreactivity (PSR sort gate)” value is reported as “low polyreactivity”.

As for “QVQLVQSRGGLVQAGGSLRLSCAASGSTFSGNAMGWYRPAPGKEREFVAAITSSGGSTYYADSVKGRFTISRDNAKNSVYLQMNSLKPEDTAVYYCATDNPFLWWFRPDQHGMGYWGQGTQVTVSS”, the “polyreactivity (PSR sort gate)” value is reported as “low polyreactivity”.

As for “QVQLVQSWPGLVQEGGSLRLSSAESGYTIRWYAMGCYRQAHGKERELVASITSGGNTNYADSVKGRFTISRDNAKNTVYLQMNRLKTEDTEVYYCAATRGYYRLDYWGQGTQVTVSS”, the “polyreactivity (PSR sort gate)” value is recorded as “high polyreactivity”.

As to “QVQLVQTGGGLVQAGGSLRLSCAASGRTFRYYAMGLYRQAPGKEREFVATITYSSGSTYYADSVKGRFTISRDNAKNTVYLQMNSLKPEDTAVYYCNAEGYCNSYGYWGQGTQVTVSS”, the “polyreactivity (PSR sort gate)” value was “low polyreactivity”.

Regarding “QVQLVVSGGGLVQAGGSIRLSCAASGRIFFYNAMGWYRQAPGKERELVAGISSGGGSTYYADSVKGRFTISRDNAKNTVYLQLNSLKPDDPAVYYCNKVVYSYSVGVGEYDYWGQGTQVTVSS”, the “polyreactivity (PSR sort gate)” value is listed as “high polyreactivity”.

In the case of “QVQLVVSGGGLVQAGGSLRLRCAASGRTFVRYAMGWSRQAPGKERELVARITTRGTSTYYADSVKGRFTISRDNAKNTVYLLLNSLKPEDTAVYYCNKVRTFRDKSRYDYWGQGTQVTVSS”, the “polyreactivity (PSR sort gate)” value is “low polyreactivity”.

For the sequence “QVQLVVSGGGLVQAGGSLRLRCAASGRTIWPYAMGWYRQAPRKESEFDAAITWTVGRTYYADSVKGRFTISRDNAKNTVYLQMNSLKPDDTAVYYCNARSYSQTLFGYPDDYWGQGTQVTVSS”, the “polyreactivity (PSR sort gate)” value was “high polyreactivity”.

Take “QVQLVVSGGGLVQAGGSLRLSCAASGRTFRSYAMGWYRQAPGKERELVAAISYGGGSTYYADSVKGRFTISRDNAKNTVYLQMNSLKPEDTAVYYCAAAVYKRGGYDYWGQGTQVTVSS”: the “polyreactivity (PSR sort gate)” value is given as “high polyreactivity”.

As to “QVQLVVSGGGLVQAGGSLRLSCAASGSFFPIYAMGWYRQAPGKERELVAAITSGGSTNYADSVKGRFTISRDNAKNTVYLQMNSLKPEDTAVYYCAAGGPDHADRYEYWGQGTQVTVSS”, the “polyreactivity (PSR sort gate)” value is “low polyreactivity”.

Take “QVQLVVSGGGLVQAGGSLRLSCAASGSIFNVYAMGWYRPAPGKARELVAAITNGDSTNYADSVKGRFTISRDTAKNTVYLQMHSLKPEDTAVYYCNARAPSEYYGLEYDDWGQGTQGTVSS”: the “polyreactivity (PSR sort gate)” value is given as “low polyreactivity”.

“QVQLVVSGGGLVQAGGSLRLSCAASGSIFRYYAMGWFRQAPGQERELVASITRGGTSTYYADSVKGRFTISRDNAKNTVYLQMNSLKPDDTAVYYCAAKGYLSRYDNWGLGTQVTVSS”: the “polyreactivity (PSR sort gate)” value is “high polyreactivity”.

As to “QVQLVVSGGGLVQAGGSLRLSCAASGSIFVSNAMGWYRQAPGKEREFVAAITGSGGSTYYADSVKGRFPISRDNAKNTVYLQMNSLKPEDTAVYYCNAGLIHFYAGNYDLYDYWGQGTQVTVSS”, the “polyreactivity (PSR sort gate)” value is “low polyreactivity”.

“QVQLVVSGGGLVQAGGSLRLSCAASGSILDSNAMGWYRQAPGKERELVAAITSGGSTYYADSVKGRFTISRDNAKNTVYLQMNSLKPEDTAVYYCNANGVQYFLYGYWGQGTQVTVSS”: the “polyreactivity (PSR sort gate)” value is on record as “low polyreactivity”.

Take “QVQLVVSGGGLVQAGGSLRLSCAASGYTFDDYAMAWYRQAPGKERELVAAISRGGSTYYADSVKGRFTISRDNAKNTVYLQMNSLIPEDTSVYYCAAVYRVRKITNDYWGQGTQVTVSS”: the “polyreactivity (PSR sort gate)” value is recorded as “high polyreactivity”.

As to “QVQLVVSGGGLVQAGGSLRLSCSASGYTFWRYAMGWYRQAPGKERELVAAISQSGGRTYYADSVKGRYTISRDNAKNTVYLQMNSLKPEDTAVYFCATSYSQGDDYWGQGTQVTVSS”, the “polyreactivity (PSR sort gate)” value was “high polyreactivity”.

Take “QVQLVVSGGGLVQEGGSLRLSCAASGGLFSLYAMGWYRQAPGKEREFVSAISFSGASTYYADSVKGRFTISRDNAKNTVSLQKNSLKPEDTSVYYCAAYWDAVGRRYTRLYYWGQGTQVTVSS”: the “polyreactivity (PSR sort gate)” value is given as “low polyreactivity”.

For “QVQLVVSGGGLVQPGGSLRLSCAATGSTLNSYVMGWYRQAPGKERELVATIRSGSSTNYADSVKGRFTISRDNAKNTVYLLMNSLKPEDTAVYYFAADAYSLCYDSWGQGTLVTVSS”, the “polyreactivity (PSR sort gate)” value was “low polyreactivity”.

Consider “QVQLVVSGGRLVQGAGSHRLSSAASGSIFPKYAMGWYRQAPGKERDLVATISYRGGRTYYADSVKGRFTISRDNAKNTVNLQMNCLKPEDTAVYYCNAHSQAKLDYWGQGSQVTVSS”, for which the “polyreactivity (PSR sort gate)” value is “low polyreactivity”.

For “QVQLVYSGGGLVQAGGSLRLSCAASGSIFFVYAMGWYRQAPGKERELDAAITSGGSTKDADSVKGRFTISRDNAKNTVYLQMNSLKPEDTAVYYCAKDYKCIATEGAFDYWGQGTQVTVSS”, the “polyreactivity (PSR sort gate)” value is “low polyreactivity”.

Take “QVQMQEIGGGLVQASGSLRLSCAASGNIFPDYFMGWYRLAPGKEREFVANITGGSTTNYADSVKGRFTISRDNAKNTVYLQINSLKPEDTAVYYCAVNFGTEQHAYWGQGTQVTVSS”: the “polyreactivity (PSR sort gate)” value is recorded as “high polyreactivity”.

As for “QVQMQESGGGLVQAGGSLRLICAASGTISVHASMGWYRQAPGKERELVAGITDGANTYYADSVKGRFTISRDNSKNTVYLQMNSLKPEDTAVYYCAAYYGTEVHFTYWGQGTQVTVSS”, the “polyreactivity (PSR sort gate)” value is listed as “low polyreactivity”.

For the sequence “QVQPQESGGGLVQAGGSLRLSCAASGTIFAFQTMGWYRQAPGKERELVASITYGSSTNYADSVKGRFTISRDNAKNTVYLQMNSLKPEDTAVYYCAVPQAQYYYDYWGQGTQVTVSS”, the “polyreactivity (PSR sort gate)” value is on record as “high polyreactivity”.

As to “QVQPQESGGGQVQAGSCLRLSCTASGYIFLYAYMGRYRQAPGKEREFVATITDGTSTYYADSVKGRFTISRNNAKNIVYLQMNSLKPEDTAVYYCAADAGGGYPGDEDWGQGTQVTVSS”, the “polyreactivity (PSR sort gate)” value is “low polyreactivity”.
